In US20240415889A1:

How the values were obtained:
CD94/NKG2A [1] = experiment: BLI
Target sequence in this assay (main, as listed by the source): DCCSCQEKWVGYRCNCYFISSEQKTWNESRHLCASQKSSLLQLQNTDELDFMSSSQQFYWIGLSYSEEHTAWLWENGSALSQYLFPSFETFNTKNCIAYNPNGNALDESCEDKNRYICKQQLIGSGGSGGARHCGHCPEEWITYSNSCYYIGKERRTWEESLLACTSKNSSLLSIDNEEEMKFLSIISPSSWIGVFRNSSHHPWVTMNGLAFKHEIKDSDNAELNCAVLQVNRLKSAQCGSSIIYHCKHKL

CD94/NKG2A [2] = experiment: competitive ELISA (HLA-E tetramer)
Target sequence in this assay (main, as listed by the source): as above

CD94/NKG2A [3] = experiment: reported IC50; reported value
CD94/NKG2A [4] = experiment: competitive ELISA (HLA-E tetramer); FIG. 26
Target sequence in this assay (main, as listed by the source): as above

Substance	Kd (CD94/NKG2A [1])	IC50 (CD94/NKG2A [2])	IC50 (CD94/NKG2A [3])	IC50 (CD94/NKG2A [4])
Mona analog IgG1 (LALA-PG)	4.32 nM	–	–	–
Monalizumab	–	1.5 nM	2 nM	1 nM
